{
  "source": "patent US20030087317",
  "key": {"[1]": {"tested_on": "histone"}, "[2]": {"tested_on": "myelin basic protein"}},
  "data": [
    {"substance": "human NIM1 kinase-GST (recombinant Nim1-GST, expressed in Sf21 insect cells from pVL1392/GST-NIM1)", "values": [
      {"measurement": "phosphorylation of substrate in in vitro kinase assay ([gamma-32P]-ATP, SDS-PAGE, autoradiography)", "setting": "[1]", "result": "phosphorylated its substrates MBP, lane 2, and HIST. 1, lane 4"},
      {"measurement": "phosphorylation of substrate in in vitro kinase assay ([gamma-32P]-ATP, SDS-PAGE, autoradiography)", "setting": "[2]", "result": "phosphorylated its substrates MBP, lane 2, and HIST. 1, lane 4"}
    ]}
  ]
}
